Assays:
[1] = system: CC[C@@]1([C@@H]2O[C@@H]([C@H]3O[C@@](O)(CO)[C@H](C)C[C@@H]3C)C[C@@H]2C)CC[C@H]([C@]2(C)CC[C@]3(C[C@H](O)[C@@H](C)[C@@H]([C@@H](C)[C@@H](OC)[C@H](C)C(=O)O)O3)O2)O1; test: purified protein, by the assay type; conditions: other: ATPase, 0–300 μM, 30 min, 37°C
[2] = system: CN1CCC[C@@H]1Cc1c[nH]c2ccc(CCS(=O)(=O)c3ccccc3)cc12; test: purified protein, by the assay type; conditions: other: ATPase, 0–300 μM, 30 min, 37°C

mouse Mdr1a (Mus musculus), sequence (chain, as listed by the source): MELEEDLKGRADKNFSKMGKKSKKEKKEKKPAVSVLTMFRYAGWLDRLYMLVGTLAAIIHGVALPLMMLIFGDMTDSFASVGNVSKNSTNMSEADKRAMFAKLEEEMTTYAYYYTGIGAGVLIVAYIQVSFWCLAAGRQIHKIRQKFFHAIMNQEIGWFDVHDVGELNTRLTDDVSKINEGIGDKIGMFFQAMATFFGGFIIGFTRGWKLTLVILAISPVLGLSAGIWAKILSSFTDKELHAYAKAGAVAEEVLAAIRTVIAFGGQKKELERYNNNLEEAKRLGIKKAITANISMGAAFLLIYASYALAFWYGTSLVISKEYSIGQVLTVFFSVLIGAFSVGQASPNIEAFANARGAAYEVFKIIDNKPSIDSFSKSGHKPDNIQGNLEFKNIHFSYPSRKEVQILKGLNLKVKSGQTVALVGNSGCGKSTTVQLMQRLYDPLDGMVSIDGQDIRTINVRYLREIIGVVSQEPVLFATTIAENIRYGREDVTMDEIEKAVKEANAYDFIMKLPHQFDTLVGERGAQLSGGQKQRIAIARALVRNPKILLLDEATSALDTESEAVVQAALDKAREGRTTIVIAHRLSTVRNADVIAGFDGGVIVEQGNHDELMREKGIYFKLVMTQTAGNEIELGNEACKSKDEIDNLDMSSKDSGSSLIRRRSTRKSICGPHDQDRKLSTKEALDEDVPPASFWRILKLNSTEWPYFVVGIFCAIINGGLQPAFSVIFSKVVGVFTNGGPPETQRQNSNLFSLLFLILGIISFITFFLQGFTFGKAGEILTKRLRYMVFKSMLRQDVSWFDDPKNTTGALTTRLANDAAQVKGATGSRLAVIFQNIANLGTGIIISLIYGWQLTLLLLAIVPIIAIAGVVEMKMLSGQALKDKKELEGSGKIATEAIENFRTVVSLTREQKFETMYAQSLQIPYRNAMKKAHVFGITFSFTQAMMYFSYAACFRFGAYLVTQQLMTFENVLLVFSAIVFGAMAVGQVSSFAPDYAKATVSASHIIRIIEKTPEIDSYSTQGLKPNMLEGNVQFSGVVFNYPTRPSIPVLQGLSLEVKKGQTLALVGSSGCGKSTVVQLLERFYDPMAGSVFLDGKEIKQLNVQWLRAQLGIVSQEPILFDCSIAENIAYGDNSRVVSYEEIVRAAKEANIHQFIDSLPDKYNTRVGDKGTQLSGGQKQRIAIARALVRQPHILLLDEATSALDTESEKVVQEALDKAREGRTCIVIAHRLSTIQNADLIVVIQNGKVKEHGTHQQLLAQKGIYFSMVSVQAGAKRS

Q: What does the source list for mouse Mdr1b (Mus musculus)?
A: Km [1]: 30.6 µM; Km [2]: 58.1 µM; Vmax [2]: 76.1 µM/min

Q: Which results are given for human MDR1 (Homo sapiens)?
A: Km [1]: 14.8 µM; Vmax [1]: 15.6 µM/min; Km [2]: 91.5 µM; Vmax [2]: 42.2 µM/min

Q: With mouse Mdr1a (Mus musculus) as the substance, how does the Km [1] read?
A: 22.0 µM

Q: What about the Km [2] of the same substance?
A: 45.6 µM

Q: What about the Vmax [2] of the same substance?
A: 32.6 µM/min
